Experimental data published in US20240376151A1, “STAPLED PEPTIDES AND METHODS THEREOF” (FOG PHARMACEUTICALS, INC., priority 2022, published 2024).
Numbered stars: 1 amine (or outer) side, 2 acyl side, 3 side chain; on linkers, the order of the positions; unused ones are H or OH. Bridge positions count the residues as written; N and C are the ends. Ends that are not written are not given here. Phenylene(1,4-NHCOCH2)2 = O=C(C[*:1])Nc1ccc(NC(=O)C[*:2])cc1

Columns and labels:
[1] = molecular target: T1, WWP1 (Homo sapiens, UniProt Q9H0M0); assay: Naive Library Presenter Screening (phage, NGS), WWP1 (construct not given); assay type: binding; settings: for interaction data at Target Concentration 10: WWP1 target concentration 10 nM; for interaction data at Target Concentration 30: WWP1 target concentration 30 nM; for interaction data at Target Concentration 100: WWP1 target concentration 100 nM; for interaction data at Target Concentration 300: WWP1 target concentration 300 nM; for interaction data at Target Concentration 1000: WWP1 target concentration 1000 nM
T1 construct: GST-TEV (N, cleaved yes); made in house; host or cells: Escherichia coli BL21 (DE3)

[2] = molecular target: T2, FBXW7-SKP1 (Homo sapiens, UniProt Q969H0); assay: Naive Library Presenter Screening (phage, NGS), FBXW7-SKP1; assay type: binding; settings: for interaction data at Target Concentration 10: FBXW7 target concentration 10 nM; for interaction data at Target Concentration 30: FBXW7 target concentration 30 nM; for interaction data at Target Concentration 100: FBXW7 target concentration 100 nM; for interaction data at Target Concentration 300: FBXW7 target concentration 300 nM; for interaction data at Target Concentration 1000: FBXW7 target concentration 1000 nM
T2 construct: FBXW7 (Uniprot ID: Q969H0, residues 263-706) with an N-terminal GST-TEV tag and C-terminal AVI tag; GST-TEV (N); made in house; host or cells: E. coli BL21 (DE3)
Procedure: To conduct phage library screening, previously described procedures were utilized in accordance with the present disclosure.
Next-generation sequencing was performed as described in accordance with the present disclosure.
Hit ID and Clustering is performed according to a described procedure in accordance with the present disclosure.

T2 sequence (Q969H0 263-706): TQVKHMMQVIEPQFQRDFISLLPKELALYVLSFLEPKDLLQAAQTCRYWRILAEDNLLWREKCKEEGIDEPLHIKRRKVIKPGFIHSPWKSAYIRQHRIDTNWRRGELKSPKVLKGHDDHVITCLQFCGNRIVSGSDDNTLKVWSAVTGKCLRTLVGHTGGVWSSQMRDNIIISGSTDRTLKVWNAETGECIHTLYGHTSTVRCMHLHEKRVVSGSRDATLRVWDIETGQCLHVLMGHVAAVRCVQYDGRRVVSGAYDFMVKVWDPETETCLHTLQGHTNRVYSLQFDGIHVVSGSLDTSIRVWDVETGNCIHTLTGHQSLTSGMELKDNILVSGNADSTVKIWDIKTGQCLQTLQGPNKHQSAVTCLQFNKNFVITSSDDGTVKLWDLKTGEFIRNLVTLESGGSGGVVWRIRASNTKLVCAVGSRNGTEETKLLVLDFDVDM
T2 sequence (P63208 whole entry partner, the tested form may be a part): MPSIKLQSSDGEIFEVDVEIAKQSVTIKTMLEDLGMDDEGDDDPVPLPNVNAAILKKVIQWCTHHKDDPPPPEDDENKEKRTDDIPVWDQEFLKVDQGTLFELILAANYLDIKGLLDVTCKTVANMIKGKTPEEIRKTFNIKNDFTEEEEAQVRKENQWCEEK

Sequence | interaction data at Target Concentration 10 [1] | interaction data at Target Concentration 30 [1] | interaction data at Target Concentration 100 [1] | interaction data at Target Concentration 300 [1] | interaction data at Target Concentration 1000 ([1]; second column) | interaction data at Target Concentration 1000 ([1]; first column) | interaction data at Target Concentration 10 [2] | interaction data at Target Concentration 30 [2] | interaction data at Target Concentration 100 [2] | interaction data at Target Concentration 300 [2] | interaction data at Target Concentration 1000 ([2]; first column) | interaction data at Target Concentration 1000 ([2]; second column)
DPALQTCMDAAQVCRLL (linker 7-14 via Phenylene(1,4-NHCOCH2)2) | 0 | 0 | 107 | 163 | 197 |  |  |  |  |  |  | 
DPAMIACSHAAQMCHWS (linker 7-14 via Phenylene(1,4-NHCOCH2)2) | 0 | 8 | 3 | 454 | 281 | 275 |  |  |  |  |  | 
DPAMRRCHQAAWVCEVL (linker 7-14 via Phenylene(1,4-NHCOCH2)2) | 0 | 1 | 98 | 182 | 140 | 183 |  |  |  |  |  | 
DPAMTWCLNAAELCEFW |  |  |  |  |  |  | 0 | 0 | 0 | 3 | 17 | 83
DPANIACDDAALLCAFW |  |  |  |  |  |  | 0 | 0 | 2 | 7 | 5 | 8
DPAQLSCTVAAHVCHST (linker 7-14 via Phenylene(1,4-NHCOCH2)2; not fully specified (C-terminus)) | 0 | 25 | 0 | 254 | 140 | 275 |  |  |  |  |  | 
DPAQQTCSQAAWVCSIL (linker 7-14 via Phenylene(1,4-NHCOCH2)2; not fully specified (C-terminus)) | 0 | 55 | 443 | 363 | 477 | 397 |  |  |  |  |  | 
DPARLDCTAAAYVCSVL (linker 7-14 via Phenylene(1,4-NHCOCH2)2) | 0 | 0 | 109 | 91 | 140 |  |  |  |  |  |  | 
DPARWACTEAAHVCDTL (linker 7-14 via Phenylene(1,4-NHCOCH2)2) | 0 | 2 |  | 182 | 281 | 183 |  |  |  |  |  | 
DPATETCAQAAVLCHSD (linker 7-14 via Phenylene(1,4-NHCOCH2)2 (inferred); not fully specified (C-terminus)) | 1 | 12 | 3 | 200 | 449 | 519 |  |  |  |  |  | 
DPATHVCTTAA VMCHQT (DPATHVCTTAAVMCHQT; not fully specified; cysteine pairing not given here) | 0 | 0 | 6 | 327 | 365 | 275 |  |  |  |  |  | 
DPATMNCTLAANICHSH (linker 7-14 via Phenylene(1,4-NHCOCH2)2 (inferred); not fully specified (C-terminus)) | 0 | 0 | 3 | 363 | 197 | 458 |  |  |  |  |  | 
DPAVRDCSDAAIVCELV (linker 7-14 via Phenylene(1,4-NHCOCH2)2) | 5 | 5 | 147 | 91 | 197 |  |  |  |  |  |  | 
DPAWMACAWAANLCHSS (linker 7-14 via Phenylene(1,4-NHCOCH2)2) | 0 | 18 | 14 | 91 | 253 | 244 |  |  |  |  |  | 
DPAWVSCVRAANLCHVS (linker 7-14 via Phenylene(1,4-NHCOCH2)2 (inferred); not fully specified (C-terminus)) | 33 | 1 | 0 | 0 | 140 | 183 |  |  |  |  |  | 
